These results are taken from US7025971.

The target of this assay is T1, PapD (wild type) (E. coli), P15319.
T1 chain: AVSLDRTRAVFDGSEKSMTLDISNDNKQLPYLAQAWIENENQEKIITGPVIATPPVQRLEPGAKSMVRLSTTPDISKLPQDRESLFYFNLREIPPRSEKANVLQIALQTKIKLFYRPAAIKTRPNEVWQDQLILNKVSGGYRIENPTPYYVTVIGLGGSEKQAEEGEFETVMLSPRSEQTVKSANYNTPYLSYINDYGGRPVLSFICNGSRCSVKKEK

As usually defined, the % Inhibition is the relative decrease from the control value, in per cent. YALAPNAVIPTSLALL (modifications not checked) [MS] came in with a % Inhibition of 1%.
The value for LSFP (modifications not checked) [G1′-4′] was 0%.
